Target: human IgE (human) (UniProt P01854)
Test: BLI (Octet RED 384), GI-305 captured on AHC biosensor, IgE 1.6 to 100 nM as analyte

UniProt P01854, sequence (P01854 other isoform, or with tags, fused parts or gaps): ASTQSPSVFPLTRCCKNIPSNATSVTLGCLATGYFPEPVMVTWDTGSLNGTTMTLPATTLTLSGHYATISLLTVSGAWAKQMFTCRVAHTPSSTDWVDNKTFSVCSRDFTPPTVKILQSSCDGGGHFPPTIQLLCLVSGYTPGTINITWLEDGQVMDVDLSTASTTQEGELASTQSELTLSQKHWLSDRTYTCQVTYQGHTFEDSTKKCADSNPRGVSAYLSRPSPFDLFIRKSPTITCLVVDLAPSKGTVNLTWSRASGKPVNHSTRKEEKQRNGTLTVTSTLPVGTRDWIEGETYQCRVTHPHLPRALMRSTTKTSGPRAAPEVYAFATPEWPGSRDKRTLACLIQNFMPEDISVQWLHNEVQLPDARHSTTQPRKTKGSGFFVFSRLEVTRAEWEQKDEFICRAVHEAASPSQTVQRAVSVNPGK

B1: GI-305 (FcεRIα ECD-Fc-anti-IL-4R scFv) fusion protein dimer (Fc fusion)
chain: VPQKPKVSLNPPWNRIFKGENVTLTCNGNNFFEVSSTKWFHNGSLSEETNSSLNIVNAKFEDSGEYKCQHQQVNESEPVYLEVFSDWLLLQASAEVVMEGQPLFLRCHGWRNWDVYKVIYYKDGEALKYWYENHNISITNATVEDSGTYYCTGKVWQLDYESEPLNITVIKAPREKYWLQGSGGGGSGGGGSGGGGSAESKYGPPCPPCPAPEAAGGPSVFLFPPKPKDQLMISRTPEVTCVVVDVSQEDPEVQFNWYVDGVEVHNAKTKPREEQFNSTYRVVSVLTVLHQDWLNGKEYKCKVSNKGLPSSIEKTISKAKGQPREPQVYTLPPSQEEMTKNQVSLTCLVKGFYPSDIAVEWESNGQPENNYKTTPPVLDSDGSFFLYSRLTVDKSRWQEGNVFSCSVLHEALHNHYTQKSLSLSLGGGGGSGGGGSGGEVQLVESGGGLEQPGGSLRLSCAGSGFTFRDYAMTWVRQAPGKCLEWVSSISGSGGNTYYADSVKGRFTISRDNSKNTLYLQMNSLRAEDTAVYYCAKDRLSITIRPRYYGLDVWGQGTTVTVSSGGGGSGGGGSGGGGSGGGGSDIVMTQSPLSLPVTPGEPASISCRSSQSLLYSIGYNYLDWYLQKSGQSPQLLIYLGSNRASGVPDRFSGSGSGTDFTLKISRVEAEDVGFYYCMQALQTPYTFGCGTKLEIK
- Kd: 500 pM
- koff: 9.74e-05 s⁻¹
- kon: 201000 M⁻¹ s⁻¹
